According to patent US20210009673A1, “METHODS FOR REGULATING BREAST CANCERS” (priority 2018, published 2021):

Tests used:
MCF-7 cells = assay: homophilic cell-cell adhesion assay (ratio NTC/NTE); format: cell-based
Method: FIG. 4: FIG. 4 illustrates in: (A), β-catenin phosphorylated by ALK at tyrosine 333 decreases the association of β-catenin with cadherin. Recombinant E-cadherin serine 692 was phosphorylated with CK2 and GSK3β and incubated with recombinant GST-β-catenin, with GST-β-catenin phosphorylated in vitro by ALK, with GST-β-catenin Y333F, or with GST-β-catenin K292A, Y333F, K335A. The GST-conjugated proteins were captured with glutathione-conjugated beads and the phospho-Ser692-E-cadherin that associated with the GST-conjugated proteins was eluted and analyzed in Western blots probed with anti-β-catenin and anti-E-cadherin antibodies. […] After incubation for 20 minutes at 37° C., β-catenin was then captured with glutathione beads and, after extensive washing, eluted with SDS buffer and analyzed in Western blots with either anti-pan-cadherin antibodies, anti-phospho-tyrosine antibodies, or anti-β-catenin antibodies to determine if β-catenin phosphorylated by ALK at tyrosine 333 associates with cadherin. […] The ratio of cells dissociated in calcium-containing media (NTC) vs. the cells dissociated in calcium-free media (NTE) (a “dissociation index,” see Experimental Procedures) was measured. […] The morphological appearance was then analyzed 36 hours later and compared with cells transfected with an equal amount of control empty vector. […]

β-catenin = assay: ubiquitination of β-catenin in HUVS cells (Rad23 capture); format: cell-based, human; conditions: 15 and 30 minutes after stimulation with PTN
Method: FIG. 12: FIG. 12 illustrates: human umbilical vein stromal cells not stimulated (lane 1) or stimulated with 50 ng/ml of PTN for 15 (lane 2), or 30 minutes (lane 3) were used to prepare cell lysates that were incubated with Rad23-conjugated agarose beads to pull-down ubiquitinated proteins and analyzed in Western-blots probed with anti-β-catenin antibodies (upper panel) and reprobed with anti-ubiquitin antibodies (lower panel). Cells pre-incubated with LY294002 were stimulated with PTN for 15 minutes (lane 4). Cells pre-incubated with lactacystin were stimulated with PTN for 15 minutes (lane 5).
Human umbilical vein stromal cells were lysed in a buffer prepared with 50 mM Tris, pH 7.2, 150 mM NaCl pH 7.5, 1% NP40, 0.25% sodium deoxicholate, Complete EDTA-free Protease Inhibitor Cocktail and 2 mM sodium orthovanadate. […] The beads were washed 4 times with lysis buffer and analyzed using Western blots.
β-catenin is rapidly degraded through the ubiquitin proteasome proteolytic pathway, thereby setting steady state levels of β-catenin by balancing its degradation with new synthesis of this key regulatory protein. […] Proteins captured with Rad23 Sepharose were eluted and analyzed in Western blots probed with anti-β-catenin antibodies (FIG. 12, upper panel) and the blots were reprobed with anti-ubiquitin antibodies (FIG. 12, lower panel). […]

GSK3β = assay: phosphorylation of GSK3β serine 9 in PTN-stimulated HUVS cells; format: cell-based, human; conditions: 5, 10 and 20 minutes after PTN
Method: FIG. 11: FIG. 11 illustrates: human umbilical vein stromal cells not stimulated or stimulated with 50 ng/ml of PTN for 2, 5, 10 or 20 minutes were used to prepare cell lysates that were analyzed in Western blots probed with anti-phospho threonine 308 Akt (panel A), anti-phospho serine 473 Akt (panel B), anti-phospho-serine 9 GSK3β (panel C), anti-phospho-serine 33, 37 and […] β-catenin (panel D) or anti-actin antibodies (panel E). Akt was immunoprecipitated from those lysates using anti-Akt antibodies, incubated with a fusion peptide containing the 20 N-terminal amino acids of GSK3β and analyzed in Western-blots probed using anti-phospho-serine 9 GSK3β antibodies (panel F).
Lysates from HUVS cells stimulated with PTN as above were then analyzed in Western blots probed with anti-phosphoserine 9 GSK3β antibodies. GSK3β is known to be phosphorylated by Akt at serine 9 and to inactivate its catalytic activity. […]
The association of adaptor proteins that associate with specific phosphorylated sites in activated EGFR are responsible for the activation of phosphatidyl-inositol 3-kinase (PI3K). […] The cells were stimulated with PTN for 2, 5, 10, and 20 minutes, cell lysates were prepared, and the lysates were analyzed in Western blots probed with anti-phospho-Akt (Ser473), anti-phospho-GSKβ (Ser9), and anti-phospho-β-catenin (Thr42) antibodies. […]

B1: pleiotrophin (protein, UniProt P21246 33-168, looked up)
Pleiotrophin: GKKEKPEKKVKKSDCGEWQWSVCVPTSGDCGLGTREGTRTGAECKQTMKTQRCKIPCNWKKQFGAECKYQFQAWGECDLNTALKTRTGSLKRALHNAECQKTVTISKPCGKLTKPKPQAESKKKKKEGKKQEKMLD
ratio NTC/NTE (MCF-7 cells; PTN-stimulated MCF7 cells expressing both RPTPβ/ζ and ALK): about 0.38
ratio NTC/NTE (MCF-7 cells; PTN-stimulated MCF-7 cells transfected with ALK alone): about 0.25
ubiquitinated β-catenin (β-catenin): decreased sharply
GSK3β serine 9 phosphorylation (GSK3β): striking increase
